Target: genome-edited CXCR4 fused to Nluc (human (endogenous in HEK293FT)) (UniProt P61073)
Chain of UniProt P61073 (P61073 whole entry, the tested form may be a part): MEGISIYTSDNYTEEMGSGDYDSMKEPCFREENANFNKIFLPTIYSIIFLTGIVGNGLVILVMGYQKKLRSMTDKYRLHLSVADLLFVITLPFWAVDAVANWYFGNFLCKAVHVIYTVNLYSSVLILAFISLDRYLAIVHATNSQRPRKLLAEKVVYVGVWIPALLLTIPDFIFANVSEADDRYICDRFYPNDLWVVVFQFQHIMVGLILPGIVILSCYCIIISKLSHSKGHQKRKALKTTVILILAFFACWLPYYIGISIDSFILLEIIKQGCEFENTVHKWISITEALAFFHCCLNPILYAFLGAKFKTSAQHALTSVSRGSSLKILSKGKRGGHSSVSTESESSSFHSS

Question: Which inhibition of forskolin (5 µM)-mediated cAMP accumulation (HTRF) in HEK293FT cells expressing genome-edited CXCR4/Nluc does the source give for “CXCL12 (from UniProt P48061 22-93) (ligand)” here?
Answer: 8.6 pEC50

From PMC5466623
